{
  "source": "patent US20040062769A1",
  "about": "(US Dept. of Health and Human Services, published 2004)",
  "biological_target": "T1, FCR3.varCSA protein (Plasmodium falciparum (FCR3 strain), surface iodinated (125I) in the thrombomodulin bead capture)",
  "T1 construct": "also called FCR3-CSA var",
  "experiment": "cytoadhesion of FCR3-CSA PRBCs to CHO-745 cells expressing CD36 (Table 1)",
  "data": [
    {"binder": "human CD36 expressed on CHO-745 cells (receptor, whole, on cells; also called CHO^CD36) GCDRNCGLIAGAVIGAVLAVFGGILMPVGDLLIQKTIKKQVVLEEGTIAFKNWVKTGTEVYRQFWIFDVQNPQEVMMNSSNIQVKQRGPYTYRVRFLAKENVTQDAEDNTVSFLQPNGAIFEPSLSVGTEADNFTVLNLAVAAASHIYQNQFVQMILNSLINKSKSSMFQVRTLRELLWGYRDPFLSLVPYPVTTTVGLFYPYNNTADGVYKVFNGKDNISKVAIIDTYKGKRNLSYWESHCDMINGTDAASFPPFVEKSQVLQFFSSDICRSIYAVFESDVNLKGIPVYRFVLPSKAFASPVENPDNYCFCTEKIISKNCTSYGVLDISKCKEGRPVYISLPHFLYASPDVSEPIDGLNPNEEEHRTYLDIEPITGFTLQFAKRLQVNLLVKPSEKIQVLKNLKRNYIVPILWLNETGTIGDEKANMFRSQVTGKINLLGLIEMILLSVGVVMFVAFMISYCACRSKTIK", "values": [
      {"measurement": "binding result", "value": "no binding"}
    ]}
  ]
}
